Reference: patent US20150231236A1, “METHODS FOR TREATING PATIENTS WITH HYPERCHOLESTEROLEMIA THAT IS NOT ADEQUATELY CONTROLLED BY MODERATE-DOSE STATIN THERAPY” (Regeneron Pharmaceuticals, Inc., priority 2014, published 2015)

Tested on: patients with hypercholesterolemia at high CV risk not adequately controlled with rosuvastatin (10 mg or 20 mg)
Conditions: in vivo

mAb316P: human anti-PCSK9 antibody; heavy chain SEQ ID NO:5, light chain SEQ ID NO:9
2 consecutive calculated LDL-C measurements below 25 mg/dL: 13 (12.6%) patients (%) | General Allergic TEAEs: 11 (10.7%) patients (%) | SOC General disorders and administration site conditions: 15 (14.6%) patients (%) | SOC Immune system disorders: 1 (1.0%) patients (%) | SOC Psychiatric disorders: 5 (4.9%) patients (%) | SOC Respiratory, thoracic and mediastinal disorders: 7 (6.8%) patients (%) | SOC Skin and subcutaneous tissue disorders: 8 (7.8%) patients (%) | TEAE accidental overdose: 3 patients | TEAE arthralgia: 4 patients | TEAE constipation: 2 patients | TEAE diarrhea: 2 patients | TEAE dizziness: 3 patients | TEAE fatigue: 3 patients | TEAE hypokalaemia: 2 patients | TEAE laceration: 3 patients | TEAE local swelling: 2 patients | TEAE myalgia: 4 patients | TEAE nasopharyngitis: 4 patients | TEAE nausea: 3 patients | TEAE pain in extremity: 2 patients | TEAE sciatica: 2 patients | TEAEs: 58 (56.3%) patients (%) | Treatment-emergent SAEs: 6 (5.8%) patients (%) | Treatment-emergent cardiovascular events adjudicated positively: Zero | Treatment-emergent neurocognitive disorders: 1 (1.0%) patients (%) | Treatment-emergent neurologic disorders: 2 (1.9%) patients (%) | discontinued study treatment early due to a treatment emergent adverse event: 5 (4.9%) patients (%) | tolerability: well tolerated
